This note sets out measurements from US20260167712A1, “INHIBITORY ANTIBODIES AGAINST GLUT1” (ICOSAGEN CELL FACTORY OÜ, priority 2022, published 2026).

For experiment [1], the system named is MiaPaca2 xenograft tumors. The experiment is described as follows: Antitumor efficacy against MiaPaca2 xenograft tumors. The format is in vivo, mice. The conditions noted are these: 6F12 #33 200 ug per mouse IP every 72 h plus daily Phenformin 20 mg/kg IP, versus phenformin alone, FIG. 12A.
Source text: Hsd:Athymic Nude-Foxn1^nu mice (10 per group) were inoculated with 5e6 MiaPaca2 cells/mouse subcutaneously.
The test system of experiment [2] is PANC1 pancreatic cancer cell line. The experiment is described as follows: Cell proliferation inhibition assay (Incucyte), PANC1. It counts as cell-based. The following applies: co-treatment with IACS-010759, compared to single agents, FIG. 11B. The method, then:
(§1) Incucyte S3 Live cell analysis instrument and Cell-by-Cell analysis software module (Sartorius) were used to evaluate the effect of anti-SLC2A1 antibodies on cancer cell proliferation label-free (FIGS. 5-11). MCF7, PC3 or PANC1 or MIAPACA2 cells were plated on flat bottom tissue culture 96-well plate in […] medium (Ximbio) supplemented with 2.5% FBS. Cells were incubated overnight and 0.02 nM to 13 μM anti-SLC2A1 antibodies, anti-HEL isotype control, PBS or BAY-876 were added to the cells alone or in combination with metformin (CaymanChem), phenformin (Sigma Aldrich) or IACS-010759 (CaymanChem). Cell confluence or object count was measured for 24 to 96 hours with Incucyte S3 and normalized to timepoint 0 h or 4h. anti-SLC2A1 antibodies inhibit cancer cell proliferation alone and especially in combination with complex-I inhibitors metformin, phenformin and IACS-010759. Exemplary antibodies 1G2 #9, 2A2 #12, 2E5 #22, 5G5 #30, 6F12 #33, 7C3 #39 and R14 #54 were used in proliferation assays.

For experiment [3], the system named is PC3 prostate cancer cell line. In words: Cell proliferation inhibition assay (Incucyte), PC3. The format is cell-based. The conditions noted are these: co-treatment with IACS-010759, compared to single agents, FIG. 11A. The method, then: as §1

B1: 6F12 #33 (antibody, V domains shown)
VH: AVTLDESGGGLQTPGGALSLVCKASGFTFSDHAIFWVRQAPDKGLEFVAAISSGTGSWTAYATVVKGRATISRDNGQSTVRLQLNNLRAADTATYYCAKGAGSACCYAGSIDAWGHGTEVIVSS
VL: ALTQPSSVSANPGETVKITCSGGSSSSYYGWYQQKSPGSAPVTLIYYNDKRPSDIPSRFSGSKSGSTATLTITGVQVEDEAVYYCGTGDGSFAIFGAGTTLTVL
For the molecule B1, the “tumor growth, cotreatment with phenformin” value in experiment [1] is reported as “statistically significant tumor growth inhibition”. Besides, in experiment [2], the “PANC1 cell growth in combination with IACS-010759” value is “dramatic growth reduction”.

B2: 2E5 #22 (antibody, V domains shown)
VH: AVTLDESGGGLQTPGGALSLVCKASGFTFSTKGMGWVRQTPGKGLEWVAGISSMRRYTYYAPAVKGRATISRDNGQSTVRLQLSSLRAEDSGTYYCARDATYCSWTTSTCGWSGGTIDAWGHGTEVIVSS
VL: ALTQPSSVSANLGGTVKITCSGGSGNYGWYQQKSPGSVPVTVIYSNDKRPSDIPSRFSGSGSGSTATLTITGVQVEDEAVYFCGSRDSSYVGLFGAGTTLTVL
Take B2: the “PC3 cell growth in combination with IACS-010759” value in experiment [3] was “strong synergistic growth inhibition”.
